Results reported in paper PMC13067816, “Alphaviral Capsid Proteins Inhibit Stress Granule Assembly via Competitive RNA Binding With G3BP1”.

B1: FAM-SFV gRNA probe1 (ssRNA)
RNA: GGUUGACGGGUCGGAUAGUUGCUU
B2: FAM-SFV gRNA probe2 (ssRNA)
RNA: GCGUCGUGUGAGCCCCCGAAAGACCACAUA
B3: FAM-GAPDH probe (ssRNA)
RNA: UUUGUCAAGCUCAUUUCCUGGUAUGACAAC
B4: FAM-AHNAK probe (ssRNA)
RNA: AUGCAAAGGGCUUGGACUUGGGUGGCAGAG

Each binder was assayed against SFV capsid (nucleocapsid N) (Semliki Forest virus (SFV4, …, UniProt P03315 1-267)) (assay: fluorescence polarization; 20 nM probe, 0-8000 nM protein; FP: 50 mM Tris-HCl pH 7.4, 150 mM NaCl, 20 nM FAM-RNA, 15 min, room temperature).
B1: binds.
B2: binds.
B3: binds.
B4: binds.
